The source of these data is the RNAGym collection of RNA variant scans (doi:10.1093/molbev/msab373).

B1: Azoarcus group I ribozyme (parent)
chain: GUGCCUUGCGCCGGGAAACCACGCAAGGGAUGGUGUCAAAUUCGGCGAAACCUAAGCGCCCGCCCGGGCGUAUGGCAACGCCGAGCCAAGCUUCGGCGCCUGCGCCGAUGAAGGUGUAGAGACUAGACGGCACCCACCUAAGGCAAACGCUAUGGUGAAGGCAUAGUCCAGGGAGUGGCGAAAGUCACACAAACCGG

In the data set the parent is B1. Kind of data set: reverse-splicing fitness (ratio to wild type); higher = more active; in vitro selection; Mg2+ level not given. An outline of the steps:
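An in vitro group I ribozyme library with randomized positions was T7-transcribed and gel-purified. In triplicate, 10 pmol RNA in EPPS pH 7.5 was reacted with 50 pmoles of a 30-nt RNA substrate for 1 h at 37 °C across several added MgCl2 levels (1–48 mM), then stopped with EDTA. Products were reverse transcribed from a substrate-complementary primer, PCR-amplified and sequenced (HiSeq 4000). Fitness is a variant's read proportion after selection over that before, normalised to wild type.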
Consider GUGCCUUGCGCCGGGAAACCACGCAAGGGAUGGUGUCAAAUUCGGCGAAACCUAAGCGCCCGCCCGGGCGUAUGGCAACGCCGAGCCAAGCUUCGGCGCCUGCGCCGAUGGAGGUGUAGAGACUAGACGGCACCCACCUAAGGCAAACGCUAUGGUGAAGGCAUAGUCAAGGGAGAGGCGAAAGUCACACAAACCGG [A111G C169A U176A], for which the reverse-splicing fitness was 0.0183.

On to GUGCCUUGCGCCGGGAAACCACGCAAGGGAUGGUGUCAAAUUCGGCGAAACCUAAGCGCCCGCCCGGGCGUAUGGCAACGCCGAGCCAAGCUUCGGCGCCUGCGCCGAUGGAGGUGUAGAGACUAGACGGCACCCACCUAAGGCAAACGCUAUGGUGAAGGCAUAGUCAAGGGAGCGGCGAAAGUCACACAAACCGG [A111G C169A U176C], for which the reverse-splicing fitness came to 0.0226. In the case of GUGCCUUGCGCCGGGAAACCACGCAAGGGAUGGUGUCAAAUUCGGCGAAACCUAAGCGCCCGCCCGGGCGUAUGGCAACGCCGAGCCAAGCUUCGGCGCCUGCGCCGAUGGAGGUGUAGAGACUAGACGGCACCCACCUAAGGCAAACGCUAUGGUGAAGGCAUAGUCAAGGGAGGGGCGAAAGUCACACAAACCGG [A111G C169A U176G] it was 0.00542.

On to GUGCCUUGCGCCGGGAAACCACGCAAGGGAUGGUGUCAAAUUCGGCGAAACCUAAGCGCCCGCCCGGGCGUAUGGCAACGCCGAGCCAAGCUUCGGCGCCUGCGCCGAUGGAGGUGUAGAGACUAGACGGCACCCACCUAAGGCAAACGUUAUGGUGAAGGCAUAGUCUAGGGAGAGGCGAAAGUCACACAAACCGG [A111G C150U C169U U176A], for which the reverse-splicing fitness is 0.0336. For GUGCCUUGCGCCGGGAAACCACGCAAGGGAUGGUGUCAAAUUCGGCGAAACCUAAGCGCCCGCCCGGGCGUAUGGCAACGCCGAGCCAAGCUUCGGCGCCUGCGCCGAUGGAGGUGUAGAGACUAGACGGCACCCACCUAAGGCAAACGUUAUGGUGAAGGCAUAGUCUAGGGAGGGGCGAAAGUCACACAAACCGG [A111G C150U C169U U176G], the reverse-splicing fitness was 0.00703. As to GUGCCUUGCGCCGGGAAACCACGCAAGGGAUGGUGUCAAAUUCGGCGAAACCUAAGCGCCCGCCCGGGCGUAUGGCAACGCCGAGCCAAGCUUCGGCGCCUGCGCCGAUGGAGGUGUAGAGACUAGACGGCACCCACCUAAGGCAAACGUUAUGGUGAAGGCAUAGUCUAGGGAGCGGCGAAAGUCACACAAACCGG [A111G C150U C169U U176C], the reverse-splicing fitness is 0.0507.

Regarding GUGCCUUGCGCCGGGAAACCACGCAAGGGAUGGUGUCAAAUUCGGCGAAACCUAAGCGCCCGCCCGGGCGUAUGGCAACGCCGAGCCAAGCUUCGGCGCCUGCGCCGAUGGAGGUGUAGAGACUAGACGGCACCCACCUAAGGCAAACGCUAUGGUGAAGGCAUAGUCAAGGGAGUGGCGAAAGUCACACAAACCGG [A111G C169A], the reverse-splicing fitness turned out to be 0.0602. In the case of GUGCCUUGCGCCGGGAAACCACGCAAGGGAUGGUGUCAAAUUCGGCGAAACCUAAGCGCCCGCCCGGGCGUAUGGCAACGCCGAGCCAAGCUUCGGCGCCUGCGCCGAUGGAGGUGUAGAGACUAGACGGCACCCACCUAAGGCAAACGCUAUGGUGAAGGCAUAGUCGAGGGAGUGGCGAAAGUCACACAAACCGG [A111G C169G] it was 0.117; in that of GUGCCUUGCGCCGGGAAACCACGCAAGGGAUGGUGUCAAAUUCGGCGAAACCUAAGCGCCCGCCCGGGCGUAUGGCAACGCCGAGCCAAGCUUCGGCGCCUGCGCCGAUGGAGGUGUAGAGACUAGACGGCACCCACCUAAGGCAAACGCUAUGGUGAAGGCAUAGUCGAGGGAGAGGCGAAAGUCACACAAACCGG [A111G C169G U176A], 0.0309; in that of GUGCCUUGCGCCGGGAAACCACGCAAGGGAUGGUGUCAAAUUCGGCGAAACCUAAGCGCCCGCCCGGGCGUAUGGCAACGCCGAGCCAAGCUUCGGCGCCUGCGCCGAUGGAGGUGUAGAGACUAGACGGCACCCACCUAAGGCAAACGCUAUGGUGAAGGCAUAGUCGAGGGAGCGGCGAAAGUCACACAAACCGG [A111G C169G U176C], 0.0577.

As to GUGCCUUGCGCCGGGAAACCACGCAAGGGAUGGUGUCAAAUUCGGCGAAACCUAAGCGCCCGCCCGGGCGUAUGGCAACGCCGAGCCAAGCUUCGGCGCCUGCGCCGAUGGAGGUGUAGAGACUAGACGGCACCCACCUAAGGCAAACGCUAUGGUGAAGGCAUAGUCGAGGGAGGGGCGAAAGUCACACAAACCGG [A111G C169G U176G], the reverse-splicing fitness came out at 0.00607. As to GUGCCUUGCGCCGGGAAACCACGCAAGGGAUGGUGUCAAAUUCGGCGAAACCUAAGCGCCCGCCCGGGCGUAUGGCAACGCCGAGCCAAGCUUCGGCGCCUGCGCCGAUGGAGGUGUAGAGACUAGACGGCACCCACCUAAGGCAAACGUUAUGGUGAAGGCAUAGUCCAGGGAGCGGCGAAAGUCACACAAACCGG [A111G C150U U176C], the reverse-splicing fitness stood at 0.646. In the case of GUGCCUUGCGCCGGGAAACCACGCAAGGGAUGGUGUCAAAUUCGGCGAAACCUAAGCGCCCGCCCGGGCGUAUGGCAACGCCGAGCCAAGCUUCGGCGCCUGCGCCGAUGGAGGUGUAGAGACUAGACGGCACCCACCUAAGGCAAACGUUAUGGUGAAGGCAUAGUCCAGGGAGAGGCGAAAGUCACACAAACCGG [A111G C150U U176A] it was 0.686; in that of GUGCCUUGCGCCGGGAAACCACGCAAGGGAUGGUGUCAAAUUCGGCGAAACCUAAGCGCCCGCCCGGGCGUAUGGCAACGCCGAGCCAAGCUUCGGCGCCUGCGCCGAUGGAGGUGUAGAGACUAGACGGCACCCACCUAAGGCAAACGUUAUGGUGAAGGCAUAGUCCAGGGAGGGGCGAAAGUCACACAAACCGG [A111G C150U U176G], 0.271; in that of GUGCCUUGCGCCGGGAAACCACGCAAGGGAUGGUGUCAAAUUCGGCGAAACCUAAGCGCCCGCCCGGGCGUAUGGCAACGCCGAGCCAAGCUUCGGCGCCUGCGCCGAUGGAGGUGUAGAGACUAGACGGCACCCACCUAAGGCAAACGUUAUGGUGAAGGCAUAGUCUAGGGAGUGGCGAAAGUCACACAAACCGG [A111G C150U C169U], 0.112.
